Measurements reported in the supplement of paper PMC11811203.

B1: THAP1; numbered along this chain (parent)
chain: MVQSCSAYGCKNRYDKDKPVSFHKFPLTRPSLCKEWEAAVRRKNFKPTKYSSICSEHFTPDCFKRECNNKLLKENAVPTIFLCTEPHDKKEDLLEPQEQLPPPPLPPPVSQVDAAIGLLMPPLQTPVNLSVFCDHNYTVEDTMHQRKRIHQLEQQVEKLRKKLKTAQQRCRRQERQLEKLKEVVHFQKEKDDVSERGYVILPNDYFEIVEVPA

Variants of: B1
Experiment: THAP1 transcriptional activity (GFP+/GFP- enrichment relative to wild-type constructs) (ratio to WT); higher = more THAP1 activity (PSMB5 reporter activation)
Settings: with PSMB5 promoter-GFP reporter
Method in brief: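 Activity values are replicate-mean bright/dim read fold changes divided by the mean of wild-type synonymous constructs. They come from a human THAP1 site-saturation library (residues 2–213, each changed to all 20 amino acids) delivered by lentivirus at MOI ~0.3, in duplicate, into THAP1-knockout HEK-293T cells with mClover3 at endogenous PSMB5. BFP+ cells were sorted into GFP-dim and GFP-bright bins after five days, and variants were counted by Illumina sequencing of genomic DNA amplicons.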

Variant	THAP1 transcriptional activity
MVQSCSAYGCKNRYDKDKPVSFHKFPLTRPSLCKEWEAAVRRKNFKPTKYSSICSEHFTPDCFKRECNNKLLKENAVPTIFLCTEPHDKKEDLLEPQEQLPPPPLPPPVSQVDAAIGLLMPPLQTPVNLSVFCDHNYTVEDTMHQRKRIHQLEQQVEKLRKKLKTAQQRPRRQERQLEKLKEVVHFQKEKDDVSERGYVILPNDYFEIVEVPA [C170P]	0.15
MVQSCSAYGCKNRYDKDKPVSFHKFPLTRPSLCKEWEAAVRRKNFKPTKYSSICSEHFTPDCFKRECNNKLLKENAVPTIFLCTEPHDKKEDLLEPQEPLPPPPLPPPVSQVDAAIGLLMPPLQTPVNLSVFCDHNYTVEDTMHQRKRIHQLEQQVEKLRKKLKTAQQRCRRQERQLEKLKEVVHFQKEKDDVSERGYVILPNDYFEIVEVPA [Q99P]	1.81
MVQSCSAYGCKNRYDKDKPVSFHKFPLTRPSLCKEWEAAVRRKNFKPTKYSSICSEHFTPDCFKRECNNKLLKENAVPTIFLCTEVHDKKEDLLEPQEQLPPPPLPPPVSQVDAAIGLLMPPLQTPVNLSVFCDHNYTVEDTMHQRKRIHQLEQQVEKLRKKLKTAQQRCRRQERQLEKLKEVVHFQKEKDDVSERGYVILPNDYFEIVEVPA [P86V]	1.04
MVQSCSAYGCKNRYDKDKPVSFHKFPLTRPSLCKEWEAAVRRKNFKPTKYSSICSEHFTPDCFKRECNNKLLKENAVPTIFLCTEFHDKKEDLLEPQEQLPPPPLPPPVSQVDAAIGLLMPPLQTPVNLSVFCDHNYTVEDTMHQRKRIHQLEQQVEKLRKKLKTAQQRCRRQERQLEKLKEVVHFQKEKDDVSERGYVILPNDYFEIVEVPA [P86F]	0.921
MVQSCSAYGCKNRYDKDKPVSFHKFPLTRPSLCKEWEAAVRRKNFKPTKYSSICSEHFTPDCFKRECNNKLLKELAVPTIFLCTEPHDKKEDLLEPQEQLPPPPLPPPVSQVDAAIGLLMPPLQTPVNLSVFCDHNYTVEDTMHQRKRIHQLEQQVEKLRKKLKTAQQRCRRQERQLEKLKEVVHFQKEKDDVSERGYVILPNDYFEIVEVPA [N75L]	0.286
MVQSCSAYGCKNRYDKDKPVSYHKFPLTRPSLCKEWEAAVRRKNFKPTKYSSICSEHFTPDCFKRECNNKLLKENAVPTIFLCTEPHDKKEDLLEPQEQLPPPPLPPPVSQVDAAIGLLMPPLQTPVNLSVFCDHNYTVEDTMHQRKRIHQLEQQVEKLRKKLKTAQQRCRRQERQLEKLKEVVHFQKEKDDVSERGYVILPNDYFEIVEVPA [F22Y]	0.288
MVQSCSAYGCKNRYDKDKPVSFHKFPLTRPSLCKEWEAAVRRKNFKPTKYSSICSEHFTPDCFKRECNNKLLKENAVPTIFLCTEPHDKKEDLLEPQEQLPPPPLPPPVSQVDAAIGLLMPPLQTPVNLSVFCDHNYTVEDTMHPRKRIHQLEQQVEKLRKKLKTAQQRCRRQERQLEKLKEVVHFQKEKDDVSERGYVILPNDYFEIVEVPA [Q145P]	0.652
MVQSCSAYGCKNRYDKDKPVSFHKFPLTRPSLCKEWEAAVRRKNFKPTKYSSICSEHFTPDCFKRECNNKLLKENAVPTIFLCTEPHDKKEDLLEPQEQLPPPPLPPPVSQVDAAIGLLMPPLQTPVNLSVFCDHNYTVEDTMHQRKRIHQLEQQVEKLRKKLKTAQQRCRRQERQLEKLKEVVHFQKEKIDVSERGYVILPNDYFEIVEVPA [D191I]	0.874
MVQSCSAYGCKNRYDKDKPVSFHKFPLTRPSLCKEWEAAVRRKNFKPTKYSSICSEHFTPDCFKRECNNKLLKENAVPTIFLCTEPHDKKEDLLEPQEQLPPPPLPPPVSQVDAAIGLLMPPLQTPVNLSVFCDHNYTVEDTMHQRKRIHQLEQQVEKLRKKLKTAQQRCRRQERQLEKLKEVVHFQKEKFDVSERGYVILPNDYFEIVEVPA [D191F]	0.695
MVQSCSAYGCKNRYDKDKPVSFHKFPLTRPSLCKEWEAAVRRKNFKPTKYSSICSEHFTPDCFKRECNNKLLKENAVPTIFLCTEPHDKKEDLLEPQEQLPPPPLPPPVSQVDAAIGLLMPPLQTPVNLSVFCDHNYTVEDTMHQRKRIHQLEQQVEKLRKKLKTAQQRCRRQERQLEKLKEVVHFQKEKDDVSERGYVILRNDYFEIVEVPA [P202R]	0.824
MVQSCSAYGCKNRYDKDKPVSFHKFPLTRPSLCKEWEAAVRRKNFKPTKYSSICSEHFTPDCFKRECNNKLLKENAVPTIFLCTEPHDKKEDLLEPQEQLPPPPLPPPVSQVDAAIGLLMPPLQTPVNLHVFCDHNYTVEDTMHQRKRIHQLEQQVEKLRKKLKTAQQRCRRQERQLEKLKEVVHFQKEKDDVSERGYVILPNDYFEIVEVPA [S130H]	0.517
MVQSCSAYGCKNRYDKDKPVSFHKFPLTRPSLCKEWEAAVRRKNFKPTKYSSICSEHFTPDCFKRECNNKLLKENAVPTIFLCTEPHDKKEDLLEPQEQLPPPPLPPPMSQVDAAIGLLMPPLQTPVNLSVFCDHNYTVEDTMHQRKRIHQLEQQVEKLRKKLKTAQQRCRRQERQLEKLKEVVHFQKEKDDVSERGYVILPNDYFEIVEVPA [V109M]	1.17
MVQSCSAYGCKNRYDKDKPVSFHKFPLTRPSLCKEWEAAVRRKNFKPTKYSSICSEHFTPDCFKRECNNKLLKENAVPTIFLCTEPHDKKEDLLEPQEQLPPPPLPPPVSQVDAAIGLLMPPLQTPVNLSVFCDHNYTVEDTMHQRKRIHQLEQQVEKLRKKLKTAQQRCRRQERQLEILKEVVHFQKEKDDVSERGYVILPNDYFEIVEVPA [K179I]	0.633
MVQSCSAYGCKNRYDKDKPVSFHKFPLTRPSLCKEWEAAVRRKNFKPTKYSSICSEHFTPDCFKRECNNKLLKENAVPTIFLCTEPHDKKEDLLEPQEQLPPPPLPPPVSQVDAAIGLLMPPLQTPVNLSVFCDHNYTVEDTMHQRKRIHQLEQQVEKLRKKLKTAVQRCRRQERQLEKLKEVVHFQKEKDDVSERGYVILPNDYFEIVEVPA [Q167V]	0.351
MVQSCSAYGCKNRYDKDKPVSFHKFPLTRPSLCKEWEAAVRRKNFKPTKYSSICSEHFTPDCFKRECNNKLLKENAVPTIFLCTEPHDKKEDLLEPQEQLPPPPLPPPVSQVDAAIGLLMPPLQTPVNLSVFCDHNYTVEDTMHQRKRIHQLEQQVEKLRKKLKTAFQRCRRQERQLEKLKEVVHFQKEKDDVSERGYVILPNDYFEIVEVPA [Q167F]	0.28
MVQSCSAYGCKNRYDKDKPVSFHKFPLTRPSLCKEWEAAVRRKNFKPTKYSSICSEHFTPDCFKRECNNKLLKENAVPTIFLCTEPHDKKEDLLEPQEQLPPPPLPPPVSQVDAAIGLLMPPLQTPVNLSVFCDHNYTVEDTMHQRKRIHQLEQQVEKLRKKLKTAQQRCRRQEYQLEKLKEVVHFQKEKDDVSERGYVILPNDYFEIVEVPA [R175Y]	0.619
MVQSCSAYGVKNRYDKDKPVSFHKFPLTRPSLCKEWEAAVRRKNFKPTKYSSICSEHFTPDCFKRECNNKLLKENAVPTIFLCTEPHDKKEDLLEPQEQLPPPPLPPPVSQVDAAIGLLMPPLQTPVNLSVFCDHNYTVEDTMHQRKRIHQLEQQVEKLRKKLKTAQQRCRRQERQLEKLKEVVHFQKEKDDVSERGYVILPNDYFEIVEVPA [C10V]	0.175
MVQSCSAYGCKNRYDKDKPVSFHKFPLTRPSLCKEWEAAVRRKNFKPTKYSSICSEHFTPDCFKRECNNKLLKENAVPTIFLCTEPHDKKEDLLEPQEQLPPPPLPPPVSQVDAAIGLLMPPLETPVNLSVFCDHNYTVEDTMHQRKRIHQLEQQVEKLRKKLKTAQQRCRRQERQLEKLKEVVHFQKEKDDVSERGYVILPNDYFEIVEVPA [Q124E]	0.458
MVQSCSAYGCKNRYDKDKPVSFHKFPLTRPSLCKEWEAAVRRKNFKPTKYSSICSEHFTPDCFKRECNNKLLKENAVPTIFLCTEPHDKKEDLLEPQEQLPPPPLPPPVSQVDAAIGLLMPPLQTPVNLSVFCDHNYTVEDTMHQRKRIHQLEQQVEKLRKKLKTAQQRCRRQERQLEKLKEVVHFQKEKDDVSERGYVILPNDYFEIVEVIA [P212I]	1.75
MVQSCSAYGCKNRYDKDKPVSFHKFPLTRPSLCKEWEAAVRRKNFKPTKYSSICSEHFTPDCFKRECNNKLLKENAVPTIFLCTEPHDKKEDLLEPQEQLPPPPLPPPVSQVDAAIGLLMPPLQTPVNLSVFCDHNYTVEDTMHQRKRIHQLEQQVEKLRKKLKTAQQRCRRQERALEKLKEVVHFQKEKDDVSERGYVILPNDYFEIVEVPA [Q176A]	0.567
MVQSCSAYGCKNRYDKDKPVSFHKFPLTRPSLCKEWEAAVRRKNFKPTKYSSICSEHFTPDCFKRECNNKLLKENAVPTIFLCTEPHDKKEDLLEPQEQLPPPPLPPPVSQVDAAIGLLMPPLQTPVNLSVFCDHNYTVEDTMHQRKRIHQFEQQVEKLRKKLKTAQQRCRRQERQLEKLKEVVHFQKEKDDVSERGYVILPNDYFEIVEVPA [L152F]	0.236
MVQSCSAYGCKNRYDKDKPVSFHKFPLTRPSLCKEWEAAVRRKNFKPTKYSSICSEHFTPDCFKRECNNKLLKENAVPTIFLCTEPHDKKEDLLEPQEQLPPPPLPPPVSQVDAAIGLLMPPLQTPSNLSVFCDHNYTVEDTMHQRKRIHQLEQQVEKLRKKLKTAQQRCRRQERQLEKLKEVVHFQKEKDDVSERGYVILPNDYFEIVEVPA [V127S]	1.39
MVQSCSAYGCKNRYDKDKPVSFHKFPLTRPSLCKEWEAAVRRKNFKPTKYSSICSEHFTPDCFKRECNNKLLKENAVPTIFLCTEPHDGKEDLLEPQEQLPPPPLPPPVSQVDAAIGLLMPPLQTPVNLSVFCDHNYTVEDTMHQRKRIHQLEQQVEKLRKKLKTAQQRCRRQERQLEKLKEVVHFQKEKDDVSERGYVILPNDYFEIVEVPA [K89G]	1.41
MVQSCSAYGCKNRYDKDKPVSFHKFPLTRPSLCKEWEAAVRRKNFKPTKYSSICSEHFTPDCFKRECNNKLLKENAVPTIFLCTEPHDRKEDLLEPQEQLPPPPLPPPVSQVDAAIGLLMPPLQTPVNLSVFCDHNYTVEDTMHQRKRIHQLEQQVEKLRKKLKTAQQRCRRQERQLEKLKEVVHFQKEKDDVSERGYVILPNDYFEIVEVPA [K89R]	0.657
MVQSCSAYGCKNRYDKDKPVSFHKFPLTRPSLCKEWEAAVRRKNFKPTKYSSICSEHFTPDCFKRECNNKLLWENAVPTIFLCTEPHDKKEDLLEPQEQLPPPPLPPPVSQVDAAIGLLMPPLQTPVNLSVFCDHNYTVEDTMHQRKRIHQLEQQVEKLRKKLKTAQQRCRRQERQLEKLKEVVHFQKEKDDVSERGYVILPNDYFEIVEVPA [K73W]	0.212
MVQSCSAYGCKNRYDKDKPVSFHKFPLTRPSLCPEWEAAVRRKNFKPTKYSSICSEHFTPDCFKRECNNKLLKENAVPTIFLCTEPHDKKEDLLEPQEQLPPPPLPPPVSQVDAAIGLLMPPLQTPVNLSVFCDHNYTVEDTMHQRKRIHQLEQQVEKLRKKLKTAQQRCRRQERQLEKLKEVVHFQKEKDDVSERGYVILPNDYFEIVEVPA [K34P]	0.0748
MVQSCSAYGCKNRYDKDKPVSFHKFPLTRPSLCKEWEAAVRRKNFKPTKYSSICSEHFTPDCFKRECNNKLLKENAVPTIFLCTEPHDKKEDLLEPQEQLPPPPLPPPVSQVDAAIGLLMPPLQTPVNLSVFCDHNYTVEDTMHQRKRIHQLEQQVEKLRKKLKTAQQRCRRQERQLEKLKEVFHFQKEKDDVSERGYVILPNDYFEIVEVPA [V184F]	0.913
MVQSCSAYGCKNRYDKDKPVSFHKFPLTRPSLCKEWEAAVRRKNFKPTKYSSICSEHFTPDCFKRECNNKLLKENAVPTIFLCTEPHDKKEDLLEPQEQLPPPPLPPPVSQVDAAIGLLMPPLQTPVNLSVFCDHNYTVEDTMHQRKRIHQLEQQVEKLRKKLKTAQQRCRRQERQLEKLKEVMHFQKEKDDVSERGYVILPNDYFEIVEVPA [V184M]	1.22
